# Target: voltage-dependent anion channel (VDAC) (rat (endogenous in rat cortex)) (UniProt Q9Z2L0)
# Experiment: co-IP
# Sequence of UniProt Q9Z2L0 (Q9Z2L0 whole entry): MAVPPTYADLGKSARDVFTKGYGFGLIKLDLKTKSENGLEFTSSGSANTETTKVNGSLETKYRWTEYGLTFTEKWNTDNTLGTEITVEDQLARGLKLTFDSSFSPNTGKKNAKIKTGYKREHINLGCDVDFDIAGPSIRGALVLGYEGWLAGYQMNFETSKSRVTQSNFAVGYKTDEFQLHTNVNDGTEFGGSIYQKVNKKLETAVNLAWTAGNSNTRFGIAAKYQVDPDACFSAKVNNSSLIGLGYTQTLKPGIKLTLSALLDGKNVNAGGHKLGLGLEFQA
substance,measurement,value
Hexokinase II VDAC binding domain peptide (fused to Antennapedia homeo-domain),"percent reduction of HK1-VDAC binding at 100 µM peptide (lower VDAC band, VDAC3)",66.1%
same,percent reduction of HK1-VDAC binding at 100 µM peptide (total VDAC),50.4%
